Results reported in patent US20190241662A1 (ADAGENE, published 2019).
Positions count from the first letter of the chain named.

Key:
[1] = target: T1, human PD1 on HEK293F cells (human, UniProt Q15116 25-288); assay: flow cytometry, transfected HEK293F cells [Cont.]
T1 construct: whole, on cells

[2] = target: T1, human PD1 on HEK293F cells; assay: flow cytometry, transfected HEK293F cells, 100 nM antibody
Description: (§1) Antibody selectivity was next examined. Human CTLA4, PD1, LAG3, Tim3, B7H3, CD95, TNFR1, OX40, CD40, PD-L1, BLTA, VISTA, PDL2, ICOS and B7H4 were transiently overexpressed on the surface of HEK293F cells. Transfected cells were washed in pre-chilled 1×PBSA buffer (1.76 mM KH2PO4, 10.14 mM Na2HPO4.12H2O, 2.68 mM KCl, 136.89 mM NaCl and 1% BSA), then incubated with 100 nM test antibodies for 1 hour on ice. Cells were washed once with staining buffer, and Alexa Fluor® 647 conjugated mouse anti-human FC antibodies were added and incubated for 30 minutes on ice, protected from light. Samples were washed once with staining buffer prior to analysis by flow cytometry.

[3] = target: T2, human LAG3 on HEK293F cells (human, UniProt P18627 23-525); assay: as above
T2 construct: whole, on cells
T2 sequence (looked up): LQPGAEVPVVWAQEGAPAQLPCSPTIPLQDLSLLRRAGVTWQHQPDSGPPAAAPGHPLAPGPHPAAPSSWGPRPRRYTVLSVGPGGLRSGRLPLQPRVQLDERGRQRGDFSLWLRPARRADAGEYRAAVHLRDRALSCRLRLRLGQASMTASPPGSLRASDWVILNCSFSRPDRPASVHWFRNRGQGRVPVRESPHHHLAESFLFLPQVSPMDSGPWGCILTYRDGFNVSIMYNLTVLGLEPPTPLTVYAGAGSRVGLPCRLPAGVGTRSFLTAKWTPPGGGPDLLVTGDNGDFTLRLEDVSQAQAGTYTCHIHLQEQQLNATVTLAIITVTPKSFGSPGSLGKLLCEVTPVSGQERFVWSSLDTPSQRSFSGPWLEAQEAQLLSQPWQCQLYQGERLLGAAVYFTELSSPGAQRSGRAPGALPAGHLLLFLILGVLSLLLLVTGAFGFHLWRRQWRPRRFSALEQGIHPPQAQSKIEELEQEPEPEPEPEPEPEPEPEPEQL
Description: as §1

[4] = target: T3, human CD95 on HEK293F cells (human, UniProt P25445 26-335); assay: as above
T3 construct: whole, on cells
T3 sequence (looked up): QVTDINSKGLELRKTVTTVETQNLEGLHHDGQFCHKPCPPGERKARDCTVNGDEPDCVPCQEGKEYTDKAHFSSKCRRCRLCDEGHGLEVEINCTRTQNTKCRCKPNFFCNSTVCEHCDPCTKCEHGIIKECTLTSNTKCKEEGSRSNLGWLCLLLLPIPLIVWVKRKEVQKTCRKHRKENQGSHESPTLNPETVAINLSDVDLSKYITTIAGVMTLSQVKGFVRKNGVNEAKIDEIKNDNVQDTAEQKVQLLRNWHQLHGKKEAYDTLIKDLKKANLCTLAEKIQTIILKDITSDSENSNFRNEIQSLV
Description: as §1

[5] = target: T4, human OX40 on HEK293F cells (human, UniProt P43489 29-277); assay: as above
T4 construct: whole, on cells
T4 sequence (looked up): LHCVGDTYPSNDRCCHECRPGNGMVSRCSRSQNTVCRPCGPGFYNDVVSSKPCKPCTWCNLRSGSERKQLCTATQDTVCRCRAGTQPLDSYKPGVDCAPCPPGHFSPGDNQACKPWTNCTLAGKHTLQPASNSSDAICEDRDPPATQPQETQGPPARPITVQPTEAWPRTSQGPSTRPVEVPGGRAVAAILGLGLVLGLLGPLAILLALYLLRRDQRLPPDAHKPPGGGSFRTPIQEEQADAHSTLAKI
Description: as §1

[6] = target: T5, full-length human CTLA4 expressed on cells (human, UniProt P16410 36-223); assay: as above
T5 construct: whole, on cells; also called HEK293F/hCTLA-4 cells; HEK293F/hCTLA4 cells
T5 sequence (looked up): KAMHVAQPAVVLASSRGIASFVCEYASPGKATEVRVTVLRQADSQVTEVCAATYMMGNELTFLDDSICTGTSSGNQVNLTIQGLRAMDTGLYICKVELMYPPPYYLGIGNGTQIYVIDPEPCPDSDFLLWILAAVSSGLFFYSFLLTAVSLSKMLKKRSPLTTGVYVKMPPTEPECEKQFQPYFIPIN
Description: as §1

[7] = target: T3, human CD95 on HEK293F cells; assay: flow cytometry, transfected HEK293F cells [Cont.]
[8] = target: T4, human OX40 on HEK293F cells; assay: flow cytometry, transfected HEK293F cells [Cont.]

T1 sequence (Q15116 25-288): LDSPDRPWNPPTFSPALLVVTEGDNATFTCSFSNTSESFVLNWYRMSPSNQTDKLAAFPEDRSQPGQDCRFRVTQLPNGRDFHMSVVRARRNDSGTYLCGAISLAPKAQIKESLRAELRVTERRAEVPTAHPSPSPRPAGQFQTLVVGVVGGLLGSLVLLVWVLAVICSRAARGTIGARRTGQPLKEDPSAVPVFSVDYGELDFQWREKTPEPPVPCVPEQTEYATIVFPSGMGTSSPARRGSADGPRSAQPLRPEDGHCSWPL

B1: TY21687 (antibody, V domains shown)
VH: EVQLVESGGGLVQPGGSLRLSCAASGFTFSGYAIHWVRQAPGKGLEWIGIISPSGGGTKYAQKFQGRVTISRDNSKNTLYLQLNSLRAEDTAVYYCARHPFAYWGQGTLVTVSS
VL: DIQLTQSPSSLSASVGDRVTITCRASQSVDFYGISFLDWYQQKPGKAPKLLIYDASNRATGIPSRFSGSGSGTDFTLTISSLQPEDFATYYCQQYVSSPPEYTFGQGTKVEIK
notes: human IgG1 (hIgG1) from Fab hit B15700
binding result [1]: no binding (tested: 100 nM)

B2: TY21585 (antibody, V domains shown)
VH: EVQLVESGGGLVQPGGSLRLSCAASGFTFSDYAIHWVRQAPGKGLEWIGIISPSSGSTNYAQKFQGRVTISRDNSKNTLYLQLNSLRAEDTAVYYCARDIHSGSSGYYYGFDVWGQGTLVTVSS
VL: B1 VL with Q27E, Y32F, D38A, Q94H, V96T, E101V
notes: human IgG1 (hIgG1) from Fab hit B15709
% of cells in upper right quadrant (Q2) [2]: 1.33%
% of cells in upper right quadrant (Q2) [3]: 0.66%
% of cells in upper right quadrant (Q2) [4]: 0.23
Mean [4]: 6720
% of cells in upper right quadrant (Q2) [5]: 0.43
Mean [5]: 10500
% of cells in upper right quadrant (Q2) [6]: 30.4%

B3: TY21591 (antibody, V domains shown)
VH: EVQLVESGGGLVQPGGSLRLSCAASGFSLSTGGVAVSWIRQAPGKGLEWIGEIYHSGSTYYSPSLKSRVTISRDNSKNTLYLQLNSLRAEDTAVYYCARRIATATYFDYWGQGTLVTVSS
VL: DIQLTQSPSSLSASVGDRVTITCRASQTVFSRYLAWYQQKPGKAPKLLIYDASNRATGIPSRFSGSGSGTDFTLTISSLQPEDFATYYCQQSYYWPPWTFGQGTKVEIK
notes: human IgG1 (hIgG1) from Fab hit B15756
binding result [7]: no binding (tested: 100 nM)
binding result [8]: no binding (tested: 100 nM)
